Test results as given in article PMC3824616.

Biological target: human constitutively active c-Src, adenovirus-expressed (human) (UniProt P12931)
Assay: co-IP

B1: phospho-mimetic S116D eNOS mutant, adenovirus-expressed (enzyme)
chain: MGNLKSVGQEPGPPCGLGLGLGLGLCGKQGPASPAPEPSRAPAPATPHAPDHSPAPNSPTLTRPPEGPKFPRVKNWELGSITYDTLCAQSQQDGPCTPRCCLGSLVLPRKLQTRPDPGPPPAEQLLSQARDFINQYYSSIKRSGSQAHEERLQEVEAEVASTGTYHLRESELVFGAKQAWRNAPRCVGRIQWGKLQVFDARDCSSAQEMFTYICNHIKYATNRGNLRSAITVFPQRAPGRGDFRIWNSQLVRYAGYRQQDGSVRGDPANVEITELCIQHGWTPGNGRFDVLPLLLQAPDEAPELFVLPPELVLEVPLEHPTLEWFAALGLRWYALPAVSNMLLEIGGLEFSAAPFSGWYMSTEIGTRNLCDPHRYNILEDVAVCMDLDTRTTSSLWKDKAAVEINLAVLHSFQLAKVTIVDHHAATVSFMKHLDNEQKARGGCPADWAWIVPPISGSLTPVFHQEMVNYILSPAFRYQPDPWKGSATKGAGITRKKTFKEVANAVKISASLMGTLMAKRVKATILYASETGRAQSYAQQLGRLFRKAFDPRVLCMDEYDVVSLEHEALVLVVTSTFGNGDPPENGESFAAALMEMSGPYNSSPRPEQHKSYKIRFNSVSCSDPLVSSWRRKRKESSNTDSAGALGTLRFCVFGLGSRAYPHFCAFARAVDTRLEELGGERLLQLGQGDELCGQEEAFRGWAKAAFQASCETFCVGEEAKAAAQDIFSPKRSWKRQRYRLSTQAEGLQLLPGLIHVHRRKMFQATVLSVENLQSSKSTRATILVRLDTAGQEGLQYQPGDHIGICPPNRPGLVEALLSRVEDPPPPTESVAVEQLEKGSPGGPPPSWVRDPRLPPCTLRQALTFFLDITSPPSPRLLRLLSTLAEEPSEQQELETLSQDPRRYEEWKWFRCPTLLEVLEQFPSVALPAPLLLTQLPLLQPRYYSVSSAPNAHPGEVHLTVAVLAYRTQDGLGPLHYGVCSTWLSQLKTGDPVPCFIRGAPSFRLPPDPYVPCILVGPGTGIAPFRGFWQERLHDIESKGLQPAPMTLVFGCRCSQLDHLYRDEVQDAQERGVFGRVLTAFSREPDSPKTYVQDILRTELAAEVHRVLCLERGHMFVCGDVTMATSVLQTVQRILATEGDMELDEAGDVIGVLRDQQRYHEDIFGLTLRTQEVTSRIRTQSFSLQERHLRGAVPWAFDPPGPDTPGP
B1 gave a percent reduction of co-immunoprecipitation against WT eNOS of 88%.
